Source: US10905653B2, “Sequentially decomposable polypeptide-based nanocarriers with protective shell and preparation thereof” (National Tsing Hua University, priority 2016, dated 2021)
Where a name gives a salt, the structure may show the parent alone. No end group written: not given here.

Assays:
[1] = TNBS assay, acidic hydrolysis of the cis-aconityl linkage; format: physicochemical
Experimental: TNBS (2,4,6-trinitrobenzene sulfonic acid) assay was performed in this example to analyze the acidic hydrolysis of the cis-aconityl linkage in the polypeptide-based long chain copolymer in conditions of different pH values. TNBS reacts with primary amines to yield a soluble orange colored product. Since PEG3400 released from hydrolyzed PEG3400-aconitic acid carries a free amine group at the end, the hydrolysis level of PEG3400-aconitic acid at different pH values is determined based on the amount of the colored product formed in TNBS assay. PEG3400-aconitic acid (2 mg/ml) was first dissolved in deionized water with a pH value of 5.0, 6.5, or 7.4 for hydrolysis. The hydrolysis reactions of 3 hours, 6 hours, 12 hours, and 24 fours were stopped by adjusting the pH value of the PEG3400-aconitic acid hydrolysate solutions to 8.2 and freezing. Sodium bicarbonate was added to the abovementioned hydrolysate solutions to a final concentration of 0.1 M (pH 8.2), and a 5% w/v TNBS solution was then added for reaction at 37° C. for 1 hour. The reaction was terminated using 1.0 N HCl, so that the volume ratio of the PEG3400-aconitic acid hydrolysate solution, the TNBS solution, and HCl was 4:2:1. Absorbance of the reaction-terminated solutions at 335 nm was measured with an enzyme-linked immunosorbent assay (ELISA) reader (Victor X3 2030 Multilabel Reader, PerkinElmer, Waltham, Mass., USA). According to the standard curve obtained from amine samples with known concentration, free amine group of PEG3400 in the reaction-terminated solutions was quantified and the hydrolysis level of PEG3400-aconitic acid at each pH was calculated.

[2] = tested on: human breast adenocarcinoma cells MDA-MB-231; assay: Cell viability assay (MTS assay), anti-tumor activity; format: cell-based; settings: 10 μg/ml DOX equivalent, 24 hours treatment
Experimental: The anti-tumor activity of the drug-loaded polypeptide-based nanocarrier with protective shell of the present invention was evaluated in this example by cell viability assay (MTS assay) on human breast adenocarcinoma cells MDA-MB-231 cells. The cells were seeded in a 96-well plate (5×10^3 cells/well) and cultured in L-15 medium supplemented with 10% FBS and 1% penicillin and streptomycin at 37° C. for 1 day. Next, the medium was removed, and cells were treated with 100 μl L-15 medium containing DOX.HCl, the DOX-loaded polypeptide-based nanocarriers with protective shell of calcium phosphate and with LyP-1 peptide (M-DOX NP w/LyP-1), or the DOX-loaded polypeptide-based nanocarriers with protective shell of calcium phosphate and without LyP-1 peptide (M-DOX NP w/o LyP-1) at concentrations equivalent to 10 μg/ml DOX for 24 hours. The cells were rinsed with PBS 2 times and incubated with L-15 medium supplemented with 10% FBS and 1% penicillin and streptomycin at 37° C. for 24 hours, 48 hours, or 72 hours. To carry out the cell viability assay, the medium was first discarded from the 96-well plate, 10 μl MTS solution and 90 μl L-15 medium were added for incubation at 37° C. for 2.5 hours, and the solution was transferred to a new 96-well plate for measurement of light absorption at 490 nm. The assay was repeated 3 times.

Compound	breakage of the cis-aconityl linkage ([1]; pH 5, within 12 hours) [%]	breakage of the cis-aconityl linkage ([1]; pH 6.5, within 12 hours) [%]	breakage of the cis-aconityl linkage ([1]; pH 6.5, within 24 hours) [%]	breakage of the cis-aconityl linkage ([1]; pH 7.4, within 12 hours)	viability of the breast adenocarcinoma cells ([2]; kept incubated for 72 hours) [%]	viability of the breast adenocarcinoma cells ([2]; first time point, post-incubation time not given) [%]
PEG3400-aconityl linkage-polypeptide E15-H10-L10 (EEEEEEEEEEEEEEEHHHHHHHHHHLLLLLLLLLL; also: PEG3400 via aconityl linkage, site not given here) [polypeptide-based long chain copolymer]	43.33	13.28	21	about 1.97%	–	–
COc1cccc2c1C(=O)c1c(O)c3c(c(O)c1C2=O)C[C@@](O)(C(=O)CO)C[C@@H]3O[C@H]1C[C@H](N)[C@H](O)[C@H](C)O1 [DOX.HCl, doxorubicin hydrochloride]	–	–	–	–	5.4	14.3
